# Numbered stars: 1 amine (or outer) side, 2 acyl side, 3 side chain; on linkers, the order of the positions; unused ones are H or OH. Bridge positions count the residues as written; N and C are the ends. Side chains are listed from the residue outwards. Ends that are not written are not given here. * marks the point of attachment. C20 diacid = O=C(O)CCCCCCCCCCCCCCCCCCC(=O)*; γGlu = O=C(O)[C@H](CCC(=O)[*:2])N[*:1]
# T1: human amylin receptor (human, UniProt P30988 25-474; O60896 24-148, limits assumed)
# T1 construct: whole, on cells; Calcitonin receptor plus RAMP-3 gives the amylin 3(a) receptor; membranes of Amylin 3(a)/CRE-luc cells were used; also called hAmylin-R; hAmylinR
# T1 sequence (looked up) 1: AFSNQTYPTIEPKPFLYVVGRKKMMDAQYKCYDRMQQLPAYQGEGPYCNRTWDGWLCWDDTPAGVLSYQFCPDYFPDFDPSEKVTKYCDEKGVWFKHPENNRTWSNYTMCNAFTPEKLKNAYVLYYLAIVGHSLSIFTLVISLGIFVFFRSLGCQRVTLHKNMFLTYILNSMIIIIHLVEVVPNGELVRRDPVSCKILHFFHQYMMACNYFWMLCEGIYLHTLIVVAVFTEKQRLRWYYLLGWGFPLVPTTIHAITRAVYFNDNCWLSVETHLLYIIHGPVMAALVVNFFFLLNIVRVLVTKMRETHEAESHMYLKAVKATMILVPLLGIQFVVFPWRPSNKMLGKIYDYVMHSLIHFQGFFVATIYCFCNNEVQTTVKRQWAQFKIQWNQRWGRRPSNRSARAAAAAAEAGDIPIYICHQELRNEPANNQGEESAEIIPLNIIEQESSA
# T1 sequence (looked up) 2: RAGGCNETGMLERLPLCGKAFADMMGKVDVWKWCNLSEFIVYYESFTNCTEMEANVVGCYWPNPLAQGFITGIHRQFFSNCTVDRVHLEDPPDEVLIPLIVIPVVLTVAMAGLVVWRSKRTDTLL
# Biological target: T1, human amylin receptor
# Test: SPA competition binding, displacement of 125I-rat amylin from membranes with human amylin 3(a) receptor (Assay V)
# Method in brief: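 Membranes from BHK Amylin 3(a)/CRE-luc cells (35 ng/μL final) were mixed with SPA beads and test compounds in 50 mM Hepes pH 7.4 with 1 mM CaCl2, 5 mM MgCl₂, 0.1% OA and 0.02% Tween20. Incubation ran 120 min at 25° C with shaking; IC₅₀ came from one-site competition fitting.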
row,IC50 [nM],Binder
1,0.214,"K([γGlu-C20 diacid])CNTATCATQRLAEFLRHSSPNFGAIPSSTNVGPNTP-NH2 (disulfide 2-7; N-terminus assumed; SMILES CC[C@H](C)[C@H](NC(=O)[C@H](C)NC(=O)CNC(=O)[C@H](Cc1ccccc1)NC(=O)[C@H](CC(N)=O)NC(=O)[C@@H]1CCCN1C(=O)[C@H](CO)NC(=O)[C@H](CO)NC(=O)[C@H](Cc1c[nH]cn1)NC(=O)[C@H](CCCNC(=N)N)NC(=O)[C@H](CC(C)C)NC(=O)[C@H](Cc1ccccc1)NC(=O)[C@H](CCC(=O)O)NC(=O)[C@H](C)NC(=O)[C@H](CC(C)C)NC(=O)[C@H](CCCNC(=N)N)NC(=O)[C@H](CCC(N)=O)NC(=O)[C@@H](NC(=O)[C@H](C)NC(=O)[C@@H]1CSSC[C@H](NC(=O)[C@@H](N)CCCCNC(=O)CC[C@H](NC(=O)CCCCCCCCCCCCCCCCCCC(=O)O)C(=O)O)C(=O)N[C@@H](CC(N)=O)C(=O)N[C@@H]([C@@H](C)O)C(=O)N[C@@H](C)C(=O)N[C@@H]([C@@H](C)O)C(=O)N1)[C@@H](C)O)C(=O)N1CCC[C@H]1C(=O)N[C@@H](CO)C(=O)N[C@@H](CO)C(=O)N[C@H](C(=O)N[C@@H](CC(N)=O)C(=O)N[C@H](C(=O)NCC(=O)N1CCC[C@H]1C(=O)N[C@@H](CC(N)=O)C(=O)N[C@H](C(=O)N1CCC[C@H]1C(N)=O)[C@@H](C)O)C(C)C)[C@@H](C)O, also called 14E, 17R, 21P, 27P, 34P, 37P)"
2,0.396,"K([γGlu-C20 diacid])CNTATCATQRLAHFLRHSSPNFGAIPSSTNVGSHTY-NH2 (disulfide 2-7; N-terminus assumed; SMILES CC[C@H](C)[C@H](NC(=O)[C@H](C)NC(=O)CNC(=O)[C@H](Cc1ccccc1)NC(=O)[C@H](CC(N)=O)NC(=O)[C@@H]1CCCN1C(=O)[C@H](CO)NC(=O)[C@H](CO)NC(=O)[C@H](Cc1c[nH]cn1)NC(=O)[C@H](CCCNC(=N)N)NC(=O)[C@H](CC(C)C)NC(=O)[C@H](Cc1ccccc1)NC(=O)[C@H](Cc1c[nH]cn1)NC(=O)[C@H](C)NC(=O)[C@H](CC(C)C)NC(=O)[C@H](CCCNC(=N)N)NC(=O)[C@H](CCC(N)=O)NC(=O)[C@@H](NC(=O)[C@H](C)NC(=O)[C@@H]1CSSC[C@H](NC(=O)[C@@H](N)CCCCNC(=O)CC[C@H](NC(=O)CCCCCCCCCCCCCCCCCCC(=O)O)C(=O)O)C(=O)N[C@@H](CC(N)=O)C(=O)N[C@@H]([C@@H](C)O)C(=O)N[C@@H](C)C(=O)N[C@@H]([C@@H](C)O)C(=O)N1)[C@@H](C)O)C(=O)N1CCC[C@H]1C(=O)N[C@@H](CO)C(=O)N[C@@H](CO)C(=O)N[C@H](C(=O)N[C@@H](CC(N)=O)C(=O)N[C@H](C(=O)NCC(=O)N[C@@H](CO)C(=O)N[C@@H](Cc1c[nH]cn1)C(=O)N[C@H](C(=O)N[C@@H](Cc1ccc(O)cc1)C(N)=O)[C@@H](C)O)C(C)C)[C@@H](C)O, also called 14H, 17R, 21P, 27P, 35H)"
3,0.131,"K([γGlu-C20 diacid])CNTATCATQRLAHFLRHSSPNFGAIPSSTNVGPNTP-NH2 (disulfide 2-7; N-terminus assumed; SMILES CC[C@H](C)[C@H](NC(=O)[C@H](C)NC(=O)CNC(=O)[C@H](Cc1ccccc1)NC(=O)[C@H](CC(N)=O)NC(=O)[C@@H]1CCCN1C(=O)[C@H](CO)NC(=O)[C@H](CO)NC(=O)[C@H](Cc1c[nH]cn1)NC(=O)[C@H](CCCNC(=N)N)NC(=O)[C@H](CC(C)C)NC(=O)[C@H](Cc1ccccc1)NC(=O)[C@H](Cc1c[nH]cn1)NC(=O)[C@H](C)NC(=O)[C@H](CC(C)C)NC(=O)[C@H](CCCNC(=N)N)NC(=O)[C@H](CCC(N)=O)NC(=O)[C@@H](NC(=O)[C@H](C)NC(=O)[C@@H]1CSSC[C@H](NC(=O)[C@@H](N)CCCCNC(=O)CC[C@H](NC(=O)CCCCCCCCCCCCCCCCCCC(=O)O)C(=O)O)C(=O)N[C@@H](CC(N)=O)C(=O)N[C@@H]([C@@H](C)O)C(=O)N[C@@H](C)C(=O)N[C@@H]([C@@H](C)O)C(=O)N1)[C@@H](C)O)C(=O)N1CCC[C@H]1C(=O)N[C@@H](CO)C(=O)N[C@@H](CO)C(=O)N[C@H](C(=O)N[C@@H](CC(N)=O)C(=O)N[C@H](C(=O)NCC(=O)N1CCC[C@H]1C(=O)N[C@@H](CC(N)=O)C(=O)N[C@H](C(=O)N1CCC[C@H]1C(N)=O)[C@@H](C)O)C(C)C)[C@@H](C)O, also called 14H, 17R, 21P, 27P, 34P, 37P)"
4,0.271,"K([γGlu-C20 diacid])CNTATCATQRLAHFLRHSSPNFGAIPSSTNVGHNTY-NH2 (disulfide 2-7; N-terminus assumed; SMILES CC[C@H](C)[C@H](NC(=O)[C@H](C)NC(=O)CNC(=O)[C@H](Cc1ccccc1)NC(=O)[C@H](CC(N)=O)NC(=O)[C@@H]1CCCN1C(=O)[C@H](CO)NC(=O)[C@H](CO)NC(=O)[C@H](Cc1c[nH]cn1)NC(=O)[C@H](CCCNC(=N)N)NC(=O)[C@H](CC(C)C)NC(=O)[C@H](Cc1ccccc1)NC(=O)[C@H](Cc1c[nH]cn1)NC(=O)[C@H](C)NC(=O)[C@H](CC(C)C)NC(=O)[C@H](CCCNC(=N)N)NC(=O)[C@H](CCC(N)=O)NC(=O)[C@@H](NC(=O)[C@H](C)NC(=O)[C@@H]1CSSC[C@H](NC(=O)[C@@H](N)CCCCNC(=O)CC[C@H](NC(=O)CCCCCCCCCCCCCCCCCCC(=O)O)C(=O)O)C(=O)N[C@@H](CC(N)=O)C(=O)N[C@@H]([C@@H](C)O)C(=O)N[C@@H](C)C(=O)N[C@@H]([C@@H](C)O)C(=O)N1)[C@@H](C)O)C(=O)N1CCC[C@H]1C(=O)N[C@@H](CO)C(=O)N[C@@H](CO)C(=O)N[C@H](C(=O)N[C@@H](CC(N)=O)C(=O)N[C@H](C(=O)NCC(=O)N[C@@H](Cc1c[nH]cn1)C(=O)N[C@@H](CC(N)=O)C(=O)N[C@H](C(=O)N[C@@H](Cc1ccc(O)cc1)C(N)=O)[C@@H](C)O)C(C)C)[C@@H](C)O, also called 14H, 17R, 21P, 27P, 34H)"
5,0.098,"K([γGlu-C20 diacid])CNTATCATQRLAHFLRHSSPNFGAIPSSTPVGSNTY-NH2 (disulfide 2-7; N-terminus assumed; SMILES CC[C@H](C)[C@H](NC(=O)[C@H](C)NC(=O)CNC(=O)[C@H](Cc1ccccc1)NC(=O)[C@H](CC(N)=O)NC(=O)[C@@H]1CCCN1C(=O)[C@H](CO)NC(=O)[C@H](CO)NC(=O)[C@H](Cc1c[nH]cn1)NC(=O)[C@H](CCCNC(=N)N)NC(=O)[C@H](CC(C)C)NC(=O)[C@H](Cc1ccccc1)NC(=O)[C@H](Cc1c[nH]cn1)NC(=O)[C@H](C)NC(=O)[C@H](CC(C)C)NC(=O)[C@H](CCCNC(=N)N)NC(=O)[C@H](CCC(N)=O)NC(=O)[C@@H](NC(=O)[C@H](C)NC(=O)[C@@H]1CSSC[C@H](NC(=O)[C@@H](N)CCCCNC(=O)CC[C@H](NC(=O)CCCCCCCCCCCCCCCCCCC(=O)O)C(=O)O)C(=O)N[C@@H](CC(N)=O)C(=O)N[C@@H]([C@@H](C)O)C(=O)N[C@@H](C)C(=O)N[C@@H]([C@@H](C)O)C(=O)N1)[C@@H](C)O)C(=O)N1CCC[C@H]1C(=O)N[C@@H](CO)C(=O)N[C@@H](CO)C(=O)N[C@H](C(=O)N1CCC[C@H]1C(=O)N[C@H](C(=O)NCC(=O)N[C@@H](CO)C(=O)N[C@@H](CC(N)=O)C(=O)N[C@H](C(=O)N[C@@H](Cc1ccc(O)cc1)C(N)=O)[C@@H](C)O)C(C)C)[C@@H](C)O, also called 14H, 17R, 21P, 27P, 31P)"
6,0.082,"K([γGlu-C20 diacid])CNTATCATQRLAHFLRHSSPNFGAIPSSTPVGPNTY-NH2 (disulfide 2-7; N-terminus assumed; SMILES CC[C@H](C)[C@H](NC(=O)[C@H](C)NC(=O)CNC(=O)[C@H](Cc1ccccc1)NC(=O)[C@H](CC(N)=O)NC(=O)[C@@H]1CCCN1C(=O)[C@H](CO)NC(=O)[C@H](CO)NC(=O)[C@H](Cc1c[nH]cn1)NC(=O)[C@H](CCCNC(=N)N)NC(=O)[C@H](CC(C)C)NC(=O)[C@H](Cc1ccccc1)NC(=O)[C@H](Cc1c[nH]cn1)NC(=O)[C@H](C)NC(=O)[C@H](CC(C)C)NC(=O)[C@H](CCCNC(=N)N)NC(=O)[C@H](CCC(N)=O)NC(=O)[C@@H](NC(=O)[C@H](C)NC(=O)[C@@H]1CSSC[C@H](NC(=O)[C@@H](N)CCCCNC(=O)CC[C@H](NC(=O)CCCCCCCCCCCCCCCCCCC(=O)O)C(=O)O)C(=O)N[C@@H](CC(N)=O)C(=O)N[C@@H]([C@@H](C)O)C(=O)N[C@@H](C)C(=O)N[C@@H]([C@@H](C)O)C(=O)N1)[C@@H](C)O)C(=O)N1CCC[C@H]1C(=O)N[C@@H](CO)C(=O)N[C@@H](CO)C(=O)N[C@H](C(=O)N1CCC[C@H]1C(=O)N[C@H](C(=O)NCC(=O)N1CCC[C@H]1C(=O)N[C@@H](CC(N)=O)C(=O)N[C@H](C(=O)N[C@@H](Cc1ccc(O)cc1)C(N)=O)[C@@H](C)O)C(C)C)[C@@H](C)O, also called 14H, 17R, 21P, 27P, 31P, 34P)"

# — US20140087995A1 (published 2014)
